Tests used:
Conditions in all cases: protein: recombinant; tags: N-terminal His6 removed by PreScission protease; label: 5' biotin; single strand
rnGLD-2 R236A = biological target: T1, rnGLD-2 R236A (Rattus norvegicus, UniProt Q5U315 131-484, R236A); assay: EMSA; 4 uM protein, 50 nM RNA; efficient/tight binding stated; EMSA: 20 mM Tris-HCl pH 8.0, 100 mM NaCl, 37 C 20 min; 4 uM protein, 50 nM 5' biotinylated RNA; 6% native gel, TAE pH 7.2, 4 C
T1 sequence: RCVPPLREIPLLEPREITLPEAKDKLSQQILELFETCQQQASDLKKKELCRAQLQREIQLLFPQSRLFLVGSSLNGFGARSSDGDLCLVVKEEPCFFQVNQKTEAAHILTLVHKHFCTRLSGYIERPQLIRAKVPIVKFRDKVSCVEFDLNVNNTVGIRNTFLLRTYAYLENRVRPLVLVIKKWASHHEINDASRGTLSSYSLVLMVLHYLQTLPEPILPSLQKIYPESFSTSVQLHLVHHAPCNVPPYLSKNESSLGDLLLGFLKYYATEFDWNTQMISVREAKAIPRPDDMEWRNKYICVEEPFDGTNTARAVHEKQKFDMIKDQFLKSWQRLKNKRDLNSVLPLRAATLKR

rnGLD-2 NTase region WT = biological target: T2, rnGLD-2 NTase region WT (Rattus norvegicus, UniProt Q5U315 131-484); assay: EMSA; 4 uM protein, 50 nM RNA; described as weak interaction; no Mg2+ listed in binding buffer; EMSA: 20 mM Tris-HCl pH 8.0, 100 mM NaCl, 37 C 20 min; 4 uM protein, 50 nM 5' biotinylated RNA; 6% native gel, TAE pH 7.2, 4 C
T2 sequence: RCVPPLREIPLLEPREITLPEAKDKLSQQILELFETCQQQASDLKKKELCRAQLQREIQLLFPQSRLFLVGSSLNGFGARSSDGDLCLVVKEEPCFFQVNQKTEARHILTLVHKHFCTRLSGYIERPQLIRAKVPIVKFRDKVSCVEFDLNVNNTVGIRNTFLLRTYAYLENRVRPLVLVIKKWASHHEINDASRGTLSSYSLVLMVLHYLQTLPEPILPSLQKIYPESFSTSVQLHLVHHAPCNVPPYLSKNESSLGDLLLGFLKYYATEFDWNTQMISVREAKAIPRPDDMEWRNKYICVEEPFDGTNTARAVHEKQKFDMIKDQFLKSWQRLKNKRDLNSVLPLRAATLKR

rnGLD-2 R325A = biological target: T3, rnGLD-2 R325A (Rattus norvegicus, UniProt Q5U315 131-484, R325A); assay: EMSA; 4 uM protein, 50 nM RNA; EMSA: 20 mM Tris-HCl pH 8.0, 100 mM NaCl, 37 C 20 min; 4 uM protein, 50 nM 5' biotinylated RNA; 6% native gel, TAE pH 7.2, 4 C
T3 sequence: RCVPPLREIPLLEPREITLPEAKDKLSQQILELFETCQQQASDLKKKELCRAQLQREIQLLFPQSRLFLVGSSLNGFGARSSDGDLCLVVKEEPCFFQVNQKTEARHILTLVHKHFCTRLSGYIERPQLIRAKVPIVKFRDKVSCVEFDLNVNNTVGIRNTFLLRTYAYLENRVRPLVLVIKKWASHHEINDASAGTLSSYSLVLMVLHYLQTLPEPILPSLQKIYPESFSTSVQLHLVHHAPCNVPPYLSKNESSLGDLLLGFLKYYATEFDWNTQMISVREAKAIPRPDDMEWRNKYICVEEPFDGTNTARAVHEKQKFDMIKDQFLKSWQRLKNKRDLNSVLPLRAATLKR

rnGLD-2 R443A = biological target: T4, rnGLD-2 R443A (Rattus norvegicus, UniProt Q5U315 131-484, R443A); assay: as above
T4 sequence: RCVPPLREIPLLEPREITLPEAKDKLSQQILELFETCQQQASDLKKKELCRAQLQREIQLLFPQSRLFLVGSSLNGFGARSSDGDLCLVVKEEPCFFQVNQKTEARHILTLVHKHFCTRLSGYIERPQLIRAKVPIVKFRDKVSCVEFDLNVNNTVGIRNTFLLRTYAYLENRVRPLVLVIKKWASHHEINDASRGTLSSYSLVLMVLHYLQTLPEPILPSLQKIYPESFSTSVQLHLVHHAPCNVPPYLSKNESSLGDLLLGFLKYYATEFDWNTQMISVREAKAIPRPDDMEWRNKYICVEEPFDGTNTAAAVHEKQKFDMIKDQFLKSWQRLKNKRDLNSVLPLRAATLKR

## AAAAAAAAAAAAAAA (ssRNA) [A15]
rnGLD-2 R236A
  binding result: binds
rnGLD-2 NTase region WT
  binding result: binds
rnGLD-2 R325A
  binding result: no binding
rnGLD-2 R443A
  binding result: no binding

From article PMC7470959, “Structures of mammalian GLD-2 proteins reveal molecular basis of their functional diversity in mRNA and microRNA processing”
